Results: the supplement of paper PMC10126150
± gives the standard deviation of the averaged measurements.

Test system: ATP
Experiment: switch fluorescence ratio, 500 uM ATP over buffer (Cy3 cluster intensity, sum of 5 cycles each) (fold (ratio)); higher = stronger signal-on switching upon ATP binding; sequences stand for … in TCGTCGGCAGCGTCAGATGTGTATAAGAGACAGTTTTTTTTTTTTTTTTTTTTTTTTT…TC
Details: aptamer strand: ATP DNA aptamer (quencher-CACCTGGGGGAGTATTGCGGAGGAAGG + anchor), 100 nM annealed; ATP concentration: 500 uM
Summary of the method: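 Per cluster, summed Cy3 intensity from the target cycles was divided by that from the buffer cycles to give the fluorescence ratio, then averaged per switch-domain sequence. Clusters outside 100-1000 RFU were excluded. The Cy3-labelled switching-strand clusters, on a modified Illumina MiSeq flow-cell, were annealed to 100 nM quencher-labelled ATP aptamer and imaged in selection buffer, then after 15 min with 500 uM ATP at 22 °C, for five cycles with NaOH stripping and re-annealing between them.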
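Further: ATP exposure 15 min at 22 °C before imaging.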

Row | Sequence | switch fluorescence ratio
1 | AGGGTGTTTT | 1.01 ± 0.028
2 | AGGGTTAATG | 1.05 ± 0.017
3 | AGGGTTACTG | 1.04 ± 0.068
4 | AGGGTTAGTG | 0.979 ± 0.012
5 | AGGGTTATTG | 1.01 ± 0.047
6 | AGGGTTGAAG | 0.989 ± 0.035
7 | AGGGTTGGAG | 1.003 ± 0.0042
8 | AGGGTTGTTA | 0.982 ± 0.027
9 | AGGGTTTGTG | 1.11 ± 0.037
10 | AGGGTTTGTT | 1.02 ± 0.04
11 | AGGGTTTTGG | 0.999 ± 0.03
12 | AGGTAATACG | 1.098 ± 0.0067
13 | AGGTAATGAA | 0.967 ± 0.023
14 | AGGTACAGTA | 1.017 ± 0.0017
15 | AGGTAGAAGA | 0.97 ± 0.013
16 | AGGTAGCATA | 1.05 ± 0.03
17 | AGGTAGCATG | 1.01 ± 0.066
18 | AGGTAGGACT | 1 ± 0.014
19 | AGGTAGGGCA | 0.9762 ± 0.0049
20 | AGGTAGGTGG | 1.01 ± 0.019
21 | AGGTAGGTTT | 0.99 ± 0.017
22 | AGGTAGTAAG | 0.995 ± 0.031
23 | AGGTAGTCTG | 0.9756 ± 0.003

Row | Sequence | switch fluorescence ratio
24 | AGGTATCAGA | 0.972 ± 0.021
25 | AGGTCCTCTA | 0.974 ± 0.059
26 | AGGTCCTGTG | 0.998 ± 0.016
27 | AGGTCCTTCA | 1.29 ± 0.046
28 | AGGTCGGAAT | 1.04 ± 0.028
29 | AGGTCGGCAT | 0.997 ± 0.02
30 | AGGTCTAGTT | 0.9995 ± 0.0089
31 | AGGTGAATGG | 1.02 ± 0.03
32 | AGGTGATATG | 1.0171 ± 0.00075
33 | AGGTGCCTG | 0.971 ± 0.035
34 | AGGTGCTCTT | 1 ± 0.053
35 | AGGTGCTGGT | 0.997 ± 0.033
36 | AGGTGCTGTG | 1.01 ± 0.051
37 | AGGTGCTTGG | 0.997 ± 0.026
38 | AGGTGGAAGG | 0.984 ± 0.021
39 | AGGTGGAGGG | 1 ± 0.032
40 | AGGTGGCATT | 1.04 ± 0.015
41 | AGGTGGCCGT | 0.963 ± 0.02
42 | AGGTGGTGGG | 1.01 ± 0.014
43 | AGGTGTAGGC | 0.979 ± 0.038
44 | AGGTGTAGGG | 1.01 ± 0.025
45 | AGGTGTATTC | 0.9962 ± 0.0058
46 | AGGTGTCTTG | 1.14 ± 0.074

Row | Sequence | switch fluorescence ratio
47 | AGGTGTGTGC | 0.97 ± 0.014
48 | AGGTGTTGGA | 0.985 ± 0.032
49 | AGGTGTTGGG | 1.01 ± 0.035
50 | AGGTGTTGGT | 1.03 ± 0.025
51 | AGGTGTTTGT | 1.01 ± 0.028
52 | AGGTTAACAG | 0.9909 ± 0.0073
53 | AGGTTAATGT | 0.996 ± 0.032
54 | AGGTTAATTG | 0.9909 ± 0.0072
55 | AGGTTACGAG | 1 ± 0.02
56 | AGGTTAGGGC | 0.984 ± 0.018
57 | AGGTTAGTGG | 1.015 ± 0.01
58 | AGGTTATGTG | 0.999 ± 0.037
59 | AGGTTCCTCT | 1.04 ± 0.019
60 | AGGTTCGGAG | 1.04 ± 0.06
61 | AGGTTGACTG | 0.988 ± 0.1
62 | AGGTTGAGAG | 0.9515 ± 0.0075
63 | AGGTTGAGGT | 1.08 ± 0.12
64 | AGGTTGGAGC | 1 ± 0.021
65 | AGGTTGGGCA | 0.984 ± 0.0096
66 | AGGTTGGGT | 0.973 ± 0.025
67 | AGGTTGTGCG | 1 ± 0.042
68 | AGGTTGTGCT | 0.9644 ± 0.009
69 | AGGTTGTGTG | 0.959 ± 0.044

Row | Sequence | switch fluorescence ratio
70 | AGGTTGTTAG | 1.01 ± 0.019
71 | AGGTTTAAGG | 0.9726 ± 0.0058
72 | AGGTTTGCAA | 1.04 ± 0.028
73 | AGGTTTGCGA | 1.02 ± 0.018
74 | AGGTTTGCTA | 0.959 ± 0.017
75 | AGGTTTGTGT | 1.01 ± 0.024
76 | AGGTTTGTTG | 0.998 ± 0.016
77 | AGGTTTGTTT | 0.976 ± 0.0092
78 | AGGTTTTCTA | 1.012 ± 0.0036
79 | AGGTTTTGGA | 0.98 ± 0.021
80 | AGTAAAGCGG | 1 ± 0.027
81 | AGTAAAGGGA | 1.02 ± 0.029
82 | AGTAAATAGT | 1.0008 ± 3.6e-05
83 | AGTAAATGGA | 0.9854 ± 0.0055
84 | AGTAAGGGAG | 1.01 ± 0.082
85 | AGTAAGGGGG | 0.998 ± 0.035
86 | AGTAAGGTTA | 1 ± 0.024
87 | AGTAATGAAA | 0.975 ± 0.035
88 | AGTACAGGGT | 0.99 ± 0.032
89 | AGTACCGTTT | 0.968 ± 0.027
90 | AGTACTAGGA | 0.993 ± 0.011
91 | AGTACTGGCA | 1.04 ± 0.061
92 | AGTAGATGGC | 1.02 ± 0.053

Row | Sequence | switch fluorescence ratio
93 | AGTAGCAAG | 1.08 ± 0.036
94 | AGTAGCCTGA | 1.01 ± 0.013
95 | AGTAGCTCGG | 1.009 ± 0.0092
96 | AGTAGGGCGG | 1 ± 0.033
97 | AGTAGGGGAC | 0.994 ± 0.022
98 | AGTAGGGTGG | 0.991 ± 0.032
99 | AGTAGTAGGA | 1.01 ± 0.017
100 | AGTAGTTATT | 0.965 ± 0.011
101 | AGTATAGAAA | 0.978 ± 0.0065
102 | AGTATATAGT | 1.004 ± 0.0073
103 | AGTATATCTT | 0.98 ± 0.012
104 | AGTATATGGA | 1.01 ± 0.013
105 | AGTATCTTAC | 1.03 ± 0.025
106 | AGTATGAGTT | 0.9737 ± 0.0017
107 | AGTATGGGTA | 1 ± 0.018
108 | AGTATGGTGT | 0.937 ± 0.044
109 | AGTATGGTTG | 1 ± 0.02
110 | AGTATGTGGA | 0.9729 ± 0.0071
111 | AGTATTAGAG | 0.983 ± 0.039
112 | AGTATTCAGG | 1 ± 0.027
113 | AGTATTGGAG | 1.004 ± 0.0023
114 | AGTATTTAGG | 0.9808 ± 0.0043
115 | AGTATTTGAG | 0.975 ± 0.023

Row | Sequence | switch fluorescence ratio
116 | AGTATTTGTG | 0.97 ± 0.035
117 | AGTATTTTTT | 0.995 ± 0.01
118 | AGTCAATTAG | 1.04 ± 0.012
119 | AGTCATCGGG | 0.9728 ± 0.0011
120 | AGTCCAGTTT | 0.986 ± 0.013
121 | AGTCCGGGAG | 1.02 ± 0.026
122 | AGTCCTGGAG | 0.993 ± 0.044
123 | AGTCGAAATG | 0.989 ± 0.028
124 | AGTCGAGCGT | 0.9976 ± 0.0034
125 | AGTCGGAACG | 0.963 ± 0.015
126 | AGTCGGGCGT | 1 ± 0.046
127 | AGTCGGTTCG | 0.986 ± 0.03
128 | AGTCGTACGG | 1.004 ± 0.0096
129 | AGTCGTTCTG | 0.99 ± 0.01
130 | AGTCTAACTC | 1.02 ± 0.019
131 | AGTCTAGGCG | 0.985 ± 0.011
132 | AGTCTCAGGC | 1 ± 0.032
133 | AGTCTTAAGG | 0.9459 ± 0.003
134 | AGTCTTGGGG | 0.977 ± 0.019
135 | AGTGAATCTG | 0.992 ± 0.085
136 | AGTGACGGTA | 1.04 ± 0.042
137 | AGTGAGATGA | 1 ± 0.04
138 | AGTGAGCAGC | 1.04 ± 0.039

Row | Sequence | switch fluorescence ratio
139 | AGTGAGGCTC | 0.994 ± 0.011
140 | AGTGAGGGGT | 0.97 ± 0.03
141 | AGTGAGTCGG | 0.979 ± 0.018
142 | AGTGAGTGTA | 0.979 ± 0.015
143 | AGTGATATTT | 1.01 ± 0.042
144 | AGTGATCAGG | 1 ± 0.019
145 | AGTGATGCTT | 0.992 ± 0.036
146 | AGTGCAAGTG | 0.972 ± 0.011
147 | AGTGCCCGTA | 1.02 ± 0.063
148 | AGTGCCGGGA | 1.04 ± 0.034
149 | AGTGCCTGCG | 1.02 ± 0.032
150 | AGTGCGAGAG | 1.01 ± 0.029
151 | AGTGCGGGTG | 1.13 ± 0.028
152 | AGTGCGTGCG | 0.979 ± 0.059
153 | AGTGCGTTTG | 1 ± 0.038
154 | AGTGGAAGCA | 0.972 ± 0.031
155 | AGTGGAAGGG | 0.957 ± 0.027
156 | AGTGGATGGG | 0.9858 ± 0.0031
157 | AGTGGCTTTT | 1.002 ± 0.0081
